# B1: i53 polypeptide (polypeptide inhibitor of 53BP1) (designed binder)
# chain: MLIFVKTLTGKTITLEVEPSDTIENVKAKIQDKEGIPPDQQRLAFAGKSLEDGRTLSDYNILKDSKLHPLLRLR
# Target: 53BP1 (p53-binding protein 1) (human, UniProt Q12888 1-1972, limits assumed)
# Experiment: cell-based or functional assay
# Sequence of 53BP1 (p53-binding protein 1) (Q12888 whole entry): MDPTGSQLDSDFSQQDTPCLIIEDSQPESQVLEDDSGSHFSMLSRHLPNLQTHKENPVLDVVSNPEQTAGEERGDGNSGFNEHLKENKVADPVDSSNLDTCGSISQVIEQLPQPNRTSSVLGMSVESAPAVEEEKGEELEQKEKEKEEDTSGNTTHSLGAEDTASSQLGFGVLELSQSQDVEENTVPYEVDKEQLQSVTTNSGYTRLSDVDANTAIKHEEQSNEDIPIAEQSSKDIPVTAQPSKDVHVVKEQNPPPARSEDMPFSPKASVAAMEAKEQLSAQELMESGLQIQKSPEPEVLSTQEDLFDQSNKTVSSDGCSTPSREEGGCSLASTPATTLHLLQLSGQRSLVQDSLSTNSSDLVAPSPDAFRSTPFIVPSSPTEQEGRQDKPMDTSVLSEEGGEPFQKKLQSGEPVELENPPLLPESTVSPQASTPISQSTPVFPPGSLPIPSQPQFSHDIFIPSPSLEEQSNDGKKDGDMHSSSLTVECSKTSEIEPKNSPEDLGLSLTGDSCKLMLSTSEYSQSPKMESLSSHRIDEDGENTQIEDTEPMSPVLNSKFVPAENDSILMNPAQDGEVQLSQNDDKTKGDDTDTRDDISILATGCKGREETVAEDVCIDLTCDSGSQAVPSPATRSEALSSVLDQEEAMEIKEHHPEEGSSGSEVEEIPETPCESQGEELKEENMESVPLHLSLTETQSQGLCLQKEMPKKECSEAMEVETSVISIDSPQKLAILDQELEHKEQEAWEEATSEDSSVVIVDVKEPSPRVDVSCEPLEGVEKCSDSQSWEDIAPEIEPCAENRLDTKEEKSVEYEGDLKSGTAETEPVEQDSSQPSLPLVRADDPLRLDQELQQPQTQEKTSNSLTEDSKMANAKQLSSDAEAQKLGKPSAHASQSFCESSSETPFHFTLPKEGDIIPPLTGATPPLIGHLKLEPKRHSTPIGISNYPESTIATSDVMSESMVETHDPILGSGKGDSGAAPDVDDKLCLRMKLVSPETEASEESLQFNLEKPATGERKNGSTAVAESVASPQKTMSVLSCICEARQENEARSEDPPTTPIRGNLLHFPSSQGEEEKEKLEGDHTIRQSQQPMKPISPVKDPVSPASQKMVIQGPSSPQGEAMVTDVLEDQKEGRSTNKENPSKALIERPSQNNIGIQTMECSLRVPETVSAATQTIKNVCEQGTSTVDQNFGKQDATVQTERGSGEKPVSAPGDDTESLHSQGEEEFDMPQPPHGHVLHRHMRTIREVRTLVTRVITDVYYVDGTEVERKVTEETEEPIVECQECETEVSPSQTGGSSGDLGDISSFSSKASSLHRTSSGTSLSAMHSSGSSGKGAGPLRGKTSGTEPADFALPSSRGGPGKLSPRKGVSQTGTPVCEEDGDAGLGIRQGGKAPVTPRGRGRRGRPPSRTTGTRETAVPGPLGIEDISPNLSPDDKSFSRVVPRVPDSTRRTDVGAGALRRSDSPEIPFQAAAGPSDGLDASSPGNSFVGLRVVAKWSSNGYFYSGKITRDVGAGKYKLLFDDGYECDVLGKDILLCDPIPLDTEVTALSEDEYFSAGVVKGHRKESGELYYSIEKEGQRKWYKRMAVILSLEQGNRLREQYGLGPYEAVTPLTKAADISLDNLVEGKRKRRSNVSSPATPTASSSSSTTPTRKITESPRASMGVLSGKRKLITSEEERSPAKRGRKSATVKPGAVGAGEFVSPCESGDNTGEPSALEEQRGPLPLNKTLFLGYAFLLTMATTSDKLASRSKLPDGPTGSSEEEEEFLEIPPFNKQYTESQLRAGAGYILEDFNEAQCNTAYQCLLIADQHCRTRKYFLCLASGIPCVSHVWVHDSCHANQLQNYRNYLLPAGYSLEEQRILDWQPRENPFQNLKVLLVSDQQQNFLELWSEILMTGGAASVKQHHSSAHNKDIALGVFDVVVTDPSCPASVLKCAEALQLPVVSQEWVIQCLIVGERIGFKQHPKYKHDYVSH
binder,measurement,value
B1,"INDELs due to NHEJ repair (+/-1 nt), T107 RNP+AAV.310, NGS",1.3 fold reduction

# — US20220228142A1 (VERTEX PHARMACEUTICALS, published 2022)
